For 97 variants, protein stability index results are on record in the supplement of paper PMC10567573.

The chains are these.
B1: KRT15 (parent)
chain: SNFHINVEESVDGQVVSSHKREI
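Also: lentivirally expressed fusions sorted by FACS into six bins by GFP to DsRed ratio, PSI derived from sequencing read proportions per bin multiplied by bin number.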

In this data set the parent is B1. Put plainly: protein stability index of a GFP-peptide fusion (GPS, HEK-293T) (PSI 1-6); higher = more stable. Conditions: c terminus: native.
Take SNFHINVEESVDGQVVSSVKREI [H19V]: the protein stability index worked out at 3.51.
The same measure for SNFHINVEESVDGQVVSSLKREI [H19L]: 2.08; for SNFHINVEESVDGQVVSSNKREI [H19N]: 4.44; for SNFHINVEESVDGQVVSSYKREI [H19Y]: 3.48.
SNFHINVEESVDGQVVSSIKREI [H19I]: the protein stability index is 2.03.
Turning to SNFHINVEESVDGQVVSSEKREI [H19E], the protein stability index was 4.9.
The value for SNFHINVEESVDGQVVSSPKREI [H19P] was 4.66.
Regarding SNFHINVEESVDGQVVSSCKREI [H19C], the protein stability index came to 2.22.
The same measure for SNFHINVEESVDGQVVSSAKREI [H19A]: 2.75; for SNFHINVEESVDGQVVSSFKREI [H19F]: 1.33; for SNFHINVEESVDGQVVSSSKREI [H19S]: 4.55.
The same measure for SNFHINVEESVDGQVVSSQKREI [H19Q]: 2.88; for SNFHINVEESVDGQVVSSKKREI [H19K]: 2.95; for SNFHINVEESVDGQVVSSDKREI [H19D]: 5.
The same measure for SNFHINVEESVDGQVVSSMKREI [H19M]: 2.39; for SNFHINVEESVRGQVVSSHKREI [D12R]: 3.65; for SNFHINVEESVSGQVVSSHKREI [D12S]: 2.07.
As to SNFHINVEESVMGQVVSSHKREI [D12M], the protein stability index was 2.69.
The value for SNFHINVEESVEGQVVSSHKREI [D12E] was 2.21.
The value for SNFHINVEESVWGQVVSSHKREI [D12W] was 3.13.
With SNFHINVEESVYGQVVSSHKREI [D12Y], the protein stability index was 1.
The same measure for SNFHINVEESVPGQVVSSHKREI [D12P]: 1.95; for SNFHINVEESVVGQVVSSHKREI [D12V]: 2.65; for SNFHINVEESVTGQVVSSHKREI [D12T]: 2.21.
Consider SNFHINVEESVNGQVVSSHKREI [D12N], for which the protein stability index was found to be 1.82.
In the case of SNFHINVEESVCGQVVSSHKREI [D12C], the protein stability index amounted to 3.28.
Consider SNFHINVEESVIGQVVSSHKREI [D12I], for which the protein stability index is 1.34.
The value for SNFHINVEESVQGQVVSSHKREI [D12Q] was 2.07; that for SNFHINVEESVHGQVVSSHKREI [D12H] was 2.38; that for SNFHINVEESVKGQVVSSHKREI [D12K] was 1.31.
Take SNFHINVEESVGGQVVSSHKREI [D12G]: the protein stability index was 1.45.
The same measure for SNFHINVEESVDGQVYSSHKREI [V16Y]: 2.
The same measure for SNFHINVEESVDGQVGSSHKREI [V16G]: 2.82.
Regarding SNFHINVEESVDGQVKSSHKREI [V16K], the protein stability index came to 2.2.
The value for SNFHINVEESVDGQVLSSHKREI [V16L] was 2.37; that for SNFHINVEESVDGQVHSSHKREI [V16H] was 1.2.
The value for SNFHINVEESVDGQVMSSHKREI [V16M] was 2.23; that for SNFHINVEESVDGQVCSSHKREI [V16C] was 2.25; that for SNFHINVEESVDGQVPSSHKREI [V16P] was 2.18.
The same measure for SNFHINVEESVDGQVDSSHKREI [V16D]: 2.86.
SNFHINVEESVDGQVQSSHKREI [V16Q]: the protein stability index amounted to 2.62.
With SNFHINVEESVDGQVTSSHKREI [V16T], the protein stability index was 2.99.
In the case of SNFHINVEESVDGQVSSSHKREI [V16S], the protein stability index was determined as 2.18.
For SNFHINVEESVDGQVFSSHKREI [V16F], the protein stability index is 2.63.
As for SNFHINVEESVDGQVESSHKREI [V16E], the protein stability index is 2.85.
The same measure for SNFHINVEESVDGQVNSSHKREI [V16N]: 2.46; for SNFHINVEESVDGQVASSHKREI [V16A]: 2.19; for SNFHINVEESVDGQVVSSHKRLI [E22L]: 4.53.
The same measure for SNFHINVEESVDGQVVSSHKRRI [E22R]: 2.87.
The same measure for SNFHINVEESVDGQVVSSHKRTI [E22T]: 4.46.
SNFHINVEESVDGQVVSSHKRNI [E22N]: the protein stability index stood at 4.82.
Consider SNFHINVEESVDGQVVSSHKRHI [E22H], for which the protein stability index stood at 4.64.
For the variant SNFHINVEESVDGQVVSSHKRCI [E22C], the protein stability index was 4.59.
The value for SNFHINVEESVDGQVVSSHKRQI [E22Q] was 4.37; that for SNFHINVEESVDGQVVSSHKRPI [E22P] was 4.74.
The value for SNFHINVEESVDGQVVSSHKRDI [E22D] was 4.97; that for SNFHINVEESVDGQVVSSHKRFI [E22F] was 4.19; that for SNFHINVEESVDGQVVSSHKRII [E22I] was 4.12.
Take SNFHINVEESVDGQVVSSHKRGI [E22G]: the protein stability index was 5.28.
As for SNFHINVEESVDGQVVSSHKRWI [E22W], the protein stability index is 3.94.
In the case of SNFHINVEESVDGQVVSSHKRYI [E22Y], the protein stability index came to 4.1.
With SNFHINVEESVDGQVVSSHKRAI [E22A], the protein stability index was 4.63.
The same measure for SNFHINVEESVDGQVVSSHKRSI [E22S]: 3.52.
The same measure for SNFHINVEESVDGQVVSSHKRKI [E22K]: 4.82.
With SNFHINVEESVDGQVVSSHKRMI [E22M], the protein stability index turned out to be 4.05.
The value for SNFHINVEESVDGQVVSPHKREI [S18P] was 3.1; that for SNFHINVEESVDGQVVSGHKREI [S18G] was 1.54.
The same measure for SNFHINVEESVDGQVVSAHKREI [S18A]: 1.37; for SNFHINVEESVDGQVVSTHKREI [S18T]: 1.63; for SNFHINVEESVDGQVVSIHKREI [S18I]: 2.44.
As to SNFHINVEESVDGQVVSNHKREI [S18N], the protein stability index was determined as 2.72.
The value for SNFHINVEESVDGQVVSEHKREI [S18E] was 3.06; that for SNFHINVEESVDGQVVSDHKREI [S18D] was 3.92.
For the variant SNFHINVEESVDGQVVSKHKREI [S18K], the protein stability index was 2.06.
In the case of SNFHINVEESVDGQVVSMHKREI [S18M], the protein stability index is 1.
The same measure for SNFHINVEESVDGQVVSQHKREI [S18Q]: 1.27; for SNFHINVEESVDGQVVSCHKREI [S18C]: 2.21.
SNFHINVEESVDGQVVSRHKREI [S18R]: the protein stability index is 3.29.
On to SNFHINVEESVDGQVVSYHKREI [S18Y], for which the protein stability index was found to be 3.37.
With SNFHINVEESVDGQDVSSHKREI [V15D], the protein stability index was found to be 2.82.
The value for SNFHINVEESVDGQNVSSHKREI [V15N] was 2.52; that for SNFHINVEESVDGQEVSSHKREI [V15E] was 2.23; that for SNFHINVEESVDGQLVSSHKREI [V15L] was 1.78.
Turning to SNFHINVEESVDGQYVSSHKREI [V15Y], the protein stability index was 2.12.
The value for SNFHINVEESVDGQCVSSHKREI [V15C] was 1.48; that for SNFHINVEESVDGQTVSSHKREI [V15T] was 2.31; that for SNFHINVEESVDGQFVSSHKREI [V15F] was 1.96.
The same measure for SNFHINVEESVDGQAVSSHKREI [V15A]: 1.71; for SNFHINVEESVDGQQVSSHKREI [V15Q]: 2.78; for SNFHINVEESVDGQMVSSHKREI [V15M]: 4.02.
Take SNFHINVEESVDGQSVSSHKREI [V15S]: the protein stability index amounted to 3.12.
In the case of SNFHINVEESVDGQIVSSHKREI [V15I], the protein stability index came out at 2.11.
Regarding SNFHINVEESVDGQHVSSHKREI [V15H], the protein stability index amounted to 1.83.
The value for SNFHINVEESVDGQPVSSHKREI [V15P] was 2.84; that for SNFHINVEESVDGQGVSSHKREI [V15G] was 2.67; that for SNFHINVEESVDGQVVSSHYREI [K20Y] was 2.18.
Take SNFHINVEESVDGQVVSSHLREI [K20L]: the protein stability index was 1.39.
